The source of these data is patent EP4019090A1 (Numab Therapeutics AG, dated 2022).

The target in assay [1] is T1, IL-4R on HEK-Blue cells (human, UniProt P24394 26-825).
T1 sequence (looked up): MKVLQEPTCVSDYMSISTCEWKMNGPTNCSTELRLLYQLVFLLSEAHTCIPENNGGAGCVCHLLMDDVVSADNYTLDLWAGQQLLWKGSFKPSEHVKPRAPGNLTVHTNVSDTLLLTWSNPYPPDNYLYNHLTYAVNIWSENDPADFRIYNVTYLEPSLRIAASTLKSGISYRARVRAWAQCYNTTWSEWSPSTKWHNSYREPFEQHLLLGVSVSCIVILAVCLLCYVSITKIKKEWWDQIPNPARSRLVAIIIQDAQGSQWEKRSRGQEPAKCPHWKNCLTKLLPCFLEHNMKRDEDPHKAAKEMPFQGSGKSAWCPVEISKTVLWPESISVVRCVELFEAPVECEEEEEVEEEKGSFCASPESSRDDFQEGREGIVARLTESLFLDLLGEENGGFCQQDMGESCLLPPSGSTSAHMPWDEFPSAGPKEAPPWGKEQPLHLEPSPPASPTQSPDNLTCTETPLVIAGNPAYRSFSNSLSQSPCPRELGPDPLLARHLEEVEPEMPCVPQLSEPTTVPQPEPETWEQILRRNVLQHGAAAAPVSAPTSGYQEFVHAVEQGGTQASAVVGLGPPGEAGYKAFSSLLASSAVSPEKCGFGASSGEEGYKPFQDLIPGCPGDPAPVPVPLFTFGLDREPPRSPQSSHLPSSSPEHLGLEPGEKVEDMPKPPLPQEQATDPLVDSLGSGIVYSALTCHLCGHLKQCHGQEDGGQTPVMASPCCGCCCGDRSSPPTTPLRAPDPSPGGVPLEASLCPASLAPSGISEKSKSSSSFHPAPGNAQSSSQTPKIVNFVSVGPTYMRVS
Description: cell-based or functional assay.

Assay [2] addresses T1, IL-4R on HEK-Blue cells. Kind of assay: cell-based or functional assay. The source holds these as a separate data set.
The target of assay [3] is T1, IL-4R on HEK-Blue cells. Kind of assay: cell-based or functional assay. This is another data set of the same source.
Assay [4] has as its target T2, recombinant human IL-4R protein (ECD with His Tag, Sino Biological) (human, UniProt P24394 26-232).
T2 construct: extracellular domain; also called human IL-4R ECD; not shown: His tag
T2 sequence (looked up): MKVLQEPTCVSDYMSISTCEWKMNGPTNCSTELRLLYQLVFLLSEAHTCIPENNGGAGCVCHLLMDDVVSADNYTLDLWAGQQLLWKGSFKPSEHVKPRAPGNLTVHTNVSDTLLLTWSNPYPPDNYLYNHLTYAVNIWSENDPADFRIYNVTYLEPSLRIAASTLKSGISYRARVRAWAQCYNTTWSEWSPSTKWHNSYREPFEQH
Description: SPR (Biacore T200); antibody captured via anti-human IgG-Fc, human IL-4R ECD-His as analyte; 1:1 Langmuir. (In general: Surface plasmon resonance follows binding to a sensor surface in real time, without labels.)

Assay [5] addresses T3, recombinant cynomolgus monkey IL-4R (ECD with His-tag, Acro Biosystems) (cynomolgus monkey, UniProt A0A2K5V580 33-239).
T3 construct: extracellular domain; also called cynomolgus IL-4R; not shown: His tag
T3 sequence: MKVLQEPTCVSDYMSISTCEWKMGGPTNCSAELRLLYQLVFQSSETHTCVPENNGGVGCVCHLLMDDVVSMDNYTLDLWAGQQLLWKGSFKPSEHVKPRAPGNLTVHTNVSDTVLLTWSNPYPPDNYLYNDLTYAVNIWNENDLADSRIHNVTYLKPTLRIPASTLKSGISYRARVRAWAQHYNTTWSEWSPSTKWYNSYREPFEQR
Kind of assay: SPR (Biacore T200); antibody captured via anti-human IgG-Fc, cynomolgus IL-4R ECD-His as analyte; 1:1 Langmuir.

Broadly, the Kd is the free concentration of one partner at which half of the binding sites on the other are occupied at equilibrium, for simple one-to-one binding. In general, koff refers to the first-order rate constant of dissociation. What is called kon is the rate constant with which the complex forms.

Residue numbers refer to the chain shown, from its start.

B1: PRO1517 (scFv)
chain: DIQMTQSPSSLSASVGDRVTITCQASEDIESYLAWYQQKPGKAPKLLIYRASTLAYGVPSRFSGSGSGTDFTLTISSLQPEDFATYYCLGSSYSTGSNIFGTGTKVTVLGGGGGSGGGGSGGGGSGGGGSEVQLVESGGGLVQPGGSLRLSCAASGFSSSSAHYMCWVRQAPGKGLEWIGCIYAGSRGSTYYASWAKGRFTISRDNSKNTVYLQMNSLRAEDTAVYYCARAAFVNRGVSWIWPYYFSLWGQGTLVTVSS
On to B1, for which, in the assay with IL-4R on HEK-Blue cells [1], the “Neutralization of hIL-4-induced signaling in reporter gene assay: IC50” value worked out at 1.44 ng/mL and the “Neutralization of hIL-13-induced signaling in reporter gene assay: IC50” value was found to be 1.83 ng/mL.

B2: PRO1535 (scFv)
chain: B1 chain with A43P, V132S, G180A, R204K, Y227F
With B2, in the assay with IL-4R on HEK-Blue cells [1], the “Neutralization of hIL-4-induced signaling in reporter gene assay: IC50” value amounted to 1.15 ng/mL and the “Neutralization of hIL-13-induced signaling in reporter gene assay: IC50” value is 2.3 ng/mL.

B3: PRO2198 (bispecific antibody)
chain 1: DIQMTQSPSSLSARVGDRVTITCQASEDIESYLAWYQQKPGKAPKLLIYRASTLAYGVPSRFSGSGSGRDFTLTISSLQPEDFATYYCLGSSYSTGSNIFGQGTKVEIKRTVAAPSVFIFPPSDEQLKSGTASVVCLLNNFYPREAKVQWKVDNALQSGNSQESVTEQDSKDSTYSLSSTLTLSKADYEKHKVYACEVTHQGLSSPVTKSFNRGEC
chain 2: not shown
Take B3: the “neutralize human IL-4-induced signaling in the stat-6 reporter gene assay: Mean IC50 [pM]” value with IL-4R on HEK-Blue cells [2] is 23.9 pM. In the assay with IL-4R on HEK-Blue cells [3], the “neutralize human IL-13 induced signaling in the stat-6 reporter gene assay: Mean IC50 [pM]” value worked out at 22.1 pM.

B4: PRO2199 (bispecific antibody)
chain 1: not shown
chain 2: B3 chain 1 with R14S, R69T
With B4, the “neutralize human IL-4-induced signaling in the stat-6 reporter gene assay: Mean IC50 [pM]” value with IL-4R on HEK-Blue cells [2] came out at 11.5 pM. For the same molecule, the “neutralize human IL-13 induced signaling in the stat-6 reporter gene assay: IC50 [pM] (single analysis)” value in the assay with IL-4R on HEK-Blue cells [3] was 11.3 pM. Also, in assay [4], the Kd was determined as 0.197 nM, the koff worked out at 5.76e-05 s⁻¹ and the kon came to 293000 M⁻¹ s⁻¹. Also, in assay [5], the Kd came to 0.0351 nM, the koff stood at 3.44e-05 s⁻¹ and the kon stood at 980000 M⁻¹ s⁻¹.
